Laboratory results as given in patent publication US20200347146A1 (I MAB BIOPHARMA US, published 2020).

T1: CD73 on the surface of A375 cells (UniProt P21589 27-549, limits assumed)
T1 construct: whole, on cells; also called cell surface CD73
T1 sequence (looked up): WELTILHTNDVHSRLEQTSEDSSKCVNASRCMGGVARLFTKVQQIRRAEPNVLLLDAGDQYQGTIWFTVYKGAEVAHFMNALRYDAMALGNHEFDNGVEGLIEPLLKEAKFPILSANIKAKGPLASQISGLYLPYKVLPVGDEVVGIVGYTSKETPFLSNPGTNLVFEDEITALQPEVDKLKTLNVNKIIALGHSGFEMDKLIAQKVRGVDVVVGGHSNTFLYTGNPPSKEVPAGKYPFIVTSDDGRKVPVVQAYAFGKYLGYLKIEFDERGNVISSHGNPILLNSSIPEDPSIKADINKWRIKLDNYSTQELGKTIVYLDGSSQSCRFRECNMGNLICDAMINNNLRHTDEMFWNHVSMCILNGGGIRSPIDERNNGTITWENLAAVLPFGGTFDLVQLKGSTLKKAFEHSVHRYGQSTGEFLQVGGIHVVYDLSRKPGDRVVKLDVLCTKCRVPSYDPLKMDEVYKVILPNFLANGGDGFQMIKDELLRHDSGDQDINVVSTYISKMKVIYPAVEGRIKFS

T2: human CD73 protein (soluble) (human, UniProt P21589 27-549, limits assumed)
T2 construct: its species is not restated there; also called soluble CD73; 5'-nucleotidase
T2 sequence (looked up): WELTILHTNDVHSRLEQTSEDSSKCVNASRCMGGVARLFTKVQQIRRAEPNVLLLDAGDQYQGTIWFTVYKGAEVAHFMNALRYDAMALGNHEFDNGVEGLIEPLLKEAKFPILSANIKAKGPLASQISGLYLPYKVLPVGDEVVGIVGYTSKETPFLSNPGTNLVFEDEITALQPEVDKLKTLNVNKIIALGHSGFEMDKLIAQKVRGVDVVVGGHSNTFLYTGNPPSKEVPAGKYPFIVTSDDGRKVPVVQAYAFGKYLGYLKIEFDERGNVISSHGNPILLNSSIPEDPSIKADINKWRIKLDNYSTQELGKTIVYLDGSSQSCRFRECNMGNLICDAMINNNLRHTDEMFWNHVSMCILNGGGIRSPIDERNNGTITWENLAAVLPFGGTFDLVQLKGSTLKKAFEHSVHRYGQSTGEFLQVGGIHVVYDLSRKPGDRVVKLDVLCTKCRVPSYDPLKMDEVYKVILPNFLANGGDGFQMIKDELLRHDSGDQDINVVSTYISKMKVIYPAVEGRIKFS


Key:
[1] = target: T3, human PD-L1 protein (soluble) (human, UniProt Q9NZQ7 19-238, limits assumed); assay: ELISA, human PD-L1 coated on the plate, anti-human Fc HRP detection
T3 construct: also called soluble PD-L1

[2] = target: T4, human PD-L1 on PD-L1 positive Raji cells (human, UniProt Q9NZQ7 19-290); assay: flow cytometry on PD-L1 positive Raji cells, AF633 anti-human Fc detection
T4 construct: whole, on cells; also called cell surface PD-L1; PD-L1+ cells

[3] = target: T1, CD73 on the surface of A375 cells; assay: flow cytometry on A375 cells, AF633 anti-human Fc detection
Procedure: A375 cells that constitutively expressed CD73 on the surface were used in this example. 1×10⁵ A375 cells/well were suspended in FACS buffer. Antibodies diluted from 10 nM by 2-fold, 100 μl into each well, 4° C. for 30 min. The samples were washed with FACS buffer for 1×. AF633-anti hu Fc was added for binding for 30 min at 4° C., and washed with FACS buffer for 1×.

[4] = target: T2, human CD73 protein (soluble); assay: ELISA, human CD73 coated on the plate, anti-human Fc HRP detection
Procedure: Plated were coated with 100 μl of 1 μg/ml human CD73 protein overnight. The samples were blocked with 1% BSA in PBST for 1 hr, washed with PBST 3×. […] Binding with anti-hu Fc HRP was at 1:10000 in PBST, RT for 30 min, wash with PBST 3×. 100 μl of TMB and 100 μl of HCl were then added.

T4 sequence (Q9NZQ7 19-290): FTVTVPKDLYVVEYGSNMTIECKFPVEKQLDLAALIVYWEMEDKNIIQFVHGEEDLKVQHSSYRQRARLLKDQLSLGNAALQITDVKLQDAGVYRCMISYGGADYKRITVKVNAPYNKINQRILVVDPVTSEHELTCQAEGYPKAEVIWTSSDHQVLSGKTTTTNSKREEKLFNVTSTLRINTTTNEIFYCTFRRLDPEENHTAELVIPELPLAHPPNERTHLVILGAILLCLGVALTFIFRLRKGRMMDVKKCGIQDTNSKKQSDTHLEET
T3 sequence (Q9NZQ7 19-238 limits assumed): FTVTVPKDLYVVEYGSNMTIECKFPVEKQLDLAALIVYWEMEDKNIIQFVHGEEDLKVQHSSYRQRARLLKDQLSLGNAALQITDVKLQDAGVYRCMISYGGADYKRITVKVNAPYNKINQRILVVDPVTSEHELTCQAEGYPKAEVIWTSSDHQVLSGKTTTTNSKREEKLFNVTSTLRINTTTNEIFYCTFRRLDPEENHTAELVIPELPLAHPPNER

Row | binding result [1] | binding result [2] | binding result [3] | binding result [4] | Binder
1 | binds | binds |  |  | H12(PDL1) (monospecific anti-PD-L1 antibody with the H12 VH and H12 VL) (antibody, V domains shown, it was detected with anti-human Fc; also called PD-L1 antibody H12) VH: EVQLVESGGGLVQPGGSLRLSCAASGFTFSSYDMSWVRQAPGKSLEWVATISDAGGYIYYRDSVKGRFTISRDNAKNSLYLQMNSLRDEDTAVYICARELPWRYALDYWGQGTTVTVSS VL: DIQMTQSPSSLSASVGDRVTITCKASQDVTPAVAWYQQKPGKAPKLLIYSTSSRYTGVPSRFSGSGSGTDFTFTISSLQPEDIATYYCQQHYTTPLTFGQGTKLEIK
2 |  |  | binds | binds | hu309 (monospecific anti-CD73 antibody with the 309 VH and 309 VL) (antibody, V domains shown, it was detected with anti-human Fc) VH: EVQLQESGPGLVKPSETLSLTCAVSGYSITSGYYWNWIRQPPGKKLEWMGYINYGGSNGYNPSLKSRITISRDTSKNQFSLKLSSVTAADTAVYYCARDYDAYYEALDDWGQGTTVTVSS VL: EIVLSQSPATLSLSPGERATLSCRASSRVNYMHWYQQKPGQSPRPWISATSNLASGVPARFSGSGSGTSYTLTISSLEPEDFAVYYCQQWSSNPPTFGGGTKVEIK
